According to patent US20050079503A1, “Binding domain of Siah (seven in absentia homolog) protein” (PETER MacCALLUM CANCER INSTITUTE, ST. VINCENT'S INSTITUTE …, priority 2001, published 2005):

Legend:
Siah = biological target: T1, Siah (Mus musculus, UniProt P61092); assay: Interaction studies using bacterially expressed proteins; assay type: binding
T1 construct: made in house; host or cells: bacteria
T1 sequence (P61092 1-282): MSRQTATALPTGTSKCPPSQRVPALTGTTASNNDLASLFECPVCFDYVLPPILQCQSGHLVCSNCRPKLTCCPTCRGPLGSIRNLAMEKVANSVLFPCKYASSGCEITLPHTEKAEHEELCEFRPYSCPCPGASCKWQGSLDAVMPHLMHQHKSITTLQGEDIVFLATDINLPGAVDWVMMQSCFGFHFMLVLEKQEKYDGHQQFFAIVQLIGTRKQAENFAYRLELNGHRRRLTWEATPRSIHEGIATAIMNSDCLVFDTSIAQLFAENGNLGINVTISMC
From the text: PHYL is known to interact and function with SINA, the Drosophila orthologue of mammalian Siah, in the targeted degradation of the transcriptional repressor tramtrack 88 (TTK88). Applicants have shown that it interacts similarly with mammalian Siah.

[1] = biological target: T2, mutant form of Siah (Leu211 to Arg) (Mus musculus, UniProt P61092, L211R); assay: Binding of PHYL to mutant form of Siah; conditions: method not stated
T2 construct: made in house
T2 sequence (P61092 80-282 L211R): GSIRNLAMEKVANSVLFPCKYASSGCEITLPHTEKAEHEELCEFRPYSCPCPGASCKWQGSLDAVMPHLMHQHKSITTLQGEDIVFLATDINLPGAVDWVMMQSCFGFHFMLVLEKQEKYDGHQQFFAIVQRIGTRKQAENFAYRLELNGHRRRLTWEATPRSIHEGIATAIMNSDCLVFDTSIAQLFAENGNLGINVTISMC

B1: PHYL: phyllopod (PHYL) protein from Drosophila (protein, UniProt Q27934 1-400, looked up)
Protein phyllopod: MSTNQQQQANPSAAVAAPAASSEYLKRTCLICGCHTNQTINIYEPRSGPNIVQLIQAKFKFQPLNEDKFLCFSCNNWLINWHSLQAVNSNEAESQSQSPSHMGNSVLQQERTKLRPVAMVRPTVRVQPQSQPQLQPQVPINPTPAPIVYSKRRASRRSASVSRMSRVLRQCCVESLRRSPKKRNQQSVFVCLRPQGQKRSNAICKVECVAPRRKPVERLVKDVAATATPTPVLNTQSTPTYQRFPQPSVDGKVVAMFRRLGTTLSREEPAAYSAESNPACSKLPQIMSPLKEAPRWTRDLDDDEILLEFDTAISEVLPTARYQVTHEENKENQQAQEMELELEEEEEVDGRAELEVVQEAEAPLEPQSHHKQGNSHQNSHQASIQLAGLRLPMGLSISLV
affinity of interaction with Siah (in words) (Siah): high affinity | binding to mutant form of Siah [1]: does not bind
